Measurements from PMC5336696, “Structural basis for potency differences between GDF8 and GDF11” (BMC Biology, 2017).

Key:
[1] = molecular target: T1, mature growth/differentiation factor 8 (GDF8) (human) (UniProt O14793)
T1 sequence: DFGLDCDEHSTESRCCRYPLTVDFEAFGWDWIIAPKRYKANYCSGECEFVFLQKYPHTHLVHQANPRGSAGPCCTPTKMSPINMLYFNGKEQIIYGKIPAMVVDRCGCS

[2] = molecular target: T2, mature growth/differentiation factor 11 (GDF11) (human) (UniProt O95390)
T2 sequence: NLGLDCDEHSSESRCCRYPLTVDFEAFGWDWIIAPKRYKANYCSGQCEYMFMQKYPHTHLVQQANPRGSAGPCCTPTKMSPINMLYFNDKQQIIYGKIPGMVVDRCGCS

[3] = molecular target: T3, mature growth/differentiation factor 11 (GDF11) (human, UniProt O95390 299-407); test: cell-based or functional assay
T3 sequence (looked up): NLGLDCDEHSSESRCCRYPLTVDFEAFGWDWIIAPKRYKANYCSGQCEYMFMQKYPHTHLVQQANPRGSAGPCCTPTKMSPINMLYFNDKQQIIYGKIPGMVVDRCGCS

[4] = molecular target: T3, mature growth/differentiation factor 11 …; test: cell-based or functional assay; remark: listed apart in the source
[5] = molecular target: T4, mature growth/differentiation factor 8 (GDF8) (human, UniProt O14793 267-375); test: cell-based or functional assay
T4 sequence (looked up): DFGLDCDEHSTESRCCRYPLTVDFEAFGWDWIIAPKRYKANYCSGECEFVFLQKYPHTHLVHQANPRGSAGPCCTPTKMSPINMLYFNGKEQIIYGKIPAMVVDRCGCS

[6] = molecular target: T3, mature growth/differentiation factor 11 …; test: cell-based or functional assay; remark: listed apart in the source
[7] = molecular target: T4, mature growth/differentiation factor 8 …; test: cell-based or functional assay; remark: listed apart in the source

Binder	IC50 of inhibition of 0.62 nM GDF8, (CAGA)12 luciferase reporter in HEK293 cells [1] [nM]	IC50 of inhibition of 0.62 nM GDF11, (CAGA)12 luciferase reporter in HEK293 cells [2] [nM]	IC50 of inhibition of 0.62 nM GDF11 by the soluble receptor, (CAGA)12 luciferase reporter in HEK293 cells [4] [nM]	IC50 of inhibition of 0.62 nM GDF8 by the soluble receptor, (CAGA)12 luciferase reporter in HEK293 cells [5] [nM]	other results
follistatin-like 3 (FSTL3) (natural protein) MGSGNPAPGGVCWLQQGQEATCSLVLQTDVTRAECCASGNIDTAWSNLTHPGNKINLLGFLGLVHCLPCKDSCDGVECGPGKACRMLGGRPRCECAPDCSGLPARLQVCGSDGATYRDECELRAARCRGHPDLSVMYRGRCRKSCEHVVCPRPQSCVVDQTGSAHCVVCRAAPCPVPSSPGQELCGNNNVTYISSCHMRQATCFLGRSIGVRHAGSCAGTPEEPPGGESAEEEENFV	1.2	4	–	–	–
GASP2 (natural protein) AGLLPGLGSHPGVCPNQLSPNLWVDAQSTCERECSRDQDCAAAEKCCINVCGLHSCVAARFPGSPAAPTTAASCEGFVCPQQGSDCDIWDGQPVCRCRDRCEKEPSFTCASDGLTYYNRCYMDAEACLRGLHLHIVPCKHVLSWPPSSPGPPETTARPTPGAAPVPPALYSSPSPQAVQVGGTASLHCDVSGRPPPAVTWEKQSHQRENLIMRPDQMYGNVVVTSIGQLVLYNARPEDAGLYTCTARNAAGLLRADFPLSVVQREPARDAAPSIPAPAECLPDVQACTGPTSPHLVLWHYDPQRGGCMTFPARGCDGAARGFETYEACQQACARGPGDACVLPAVQGPCRGWEPRWAYSPLLQQCHPFVYGGCEGNGNNFHSRESCEDACPVPRTPPCRACRLRSKLALSLCRSDFAIVGRLTEVLEEPEAAGGIARVALEDVLKDDKMGLKFLGTKYLEVTLSGMDWACPCPNMTAGDGPLVIMGEVRDGVAVLDAGSYVRAASEKRVKKILELLEKQACELLNRFQD	4.1	18.3	–	–	–
ActRIIB extracellular domain (ActRIIB-ECD) (receptor, UniProt P38445 19-137, looked up) SGRGEAETRECIYYNANWELERTNQSGLERCEGEQDKRLHCYASWRNSSGTIELVKKGCWLDDFNCYDRQECVATEENPQVYFCCCEGNFCNERFTHLPEPGGPEVTYEPPPTAPTLLT	–	–	13	12.4	IC50 of inhibition of 0.62 nM GDF11 by the soluble receptor, (CAGA)12 luciferase reporter in HEK293 cells (value of the text) [3]: 14 nM
Fc-ActRIIB-ECD (Fc fusion, UniProt Q13705 19-137, looked up) SGRGEAETRECIYYNANWELERTNQSGLERCEGEQDKRLHCYASWRNSSGTIELVKKGCWLDDFNCYDRQECVATEENPQVYFCCCEGNFCNERFTHLPEAGGPEVTYEPPPTAPTLLT	–	–	10.3	3	–
growth/differentiation factor-associated serum protein 1 (GASP1) (natural protein) LPPIRYSHAGICPNDMNPNLWVDAQSTCRRECETDQECETYEKCCPNVCGTKSCVAARYMDVKGKKGPVGMPKEATCDHFMCLQQGSECDIWDGQPVCKCKDRCEKEPSFTCASDGLTYYNRCYMDAEACSKGITLAVVTCRYHFTWPNTSPPPPETTMHPTTASPETPELDMAAPALLNNPVHQSVTMGETVSFLCDVVGRPRPEITWEKQLEDRENVVMRPNHVRGNVVVTNIAQLVIYNAQLQDAGIYTCTARNVAGVLRADFPLSVVRGHQAAATSESSPNGTAFPAAECLKPPDSEDCGEEQTRWHFDAQANNCLTFTFGHCHRNLNHFETYEACMLACMSGPLAACSLPALQGPCKAYAPRWAYNSQTGQCQSFVYGGCEGNGNNFESREACEESCPFPRGNQRCRACKPRQKLVTSFCRSDFVILGRVSELTEEPDSGRALVTVDEVLKDEKMGLKFLGQEPLEVTLLHVDWACPCPNVTVSEMPLIIMGEVDGGMAMLRPDSFVGASSARRVRKLREVMHKKTCDVLKEFLGLH	0.2	0.3	–	–	–
follistatin 288 (FS288) (natural protein, UniProt P19883-2 30-317, looked up) GNCWLRQAKNGRCQVLYKTELSKEECCSTGRLSTSWTEEDVNDNTLFKWMIFNGGAPNCIPCKETCENVDCGPGKKCRMNKKNKPRCVCAPDCSNITWKGPVCGLDGKTYRNECALLKARCKEQPELEVQYQGRCKKTCRDVFCPGSSTCVVDQTNNAYCVTCNRICPEPASSEQYLCGNDGVTYSSACHLRKATCLLGRSIGLAYEGKCIKAKSCEDIQCTGGKKCLWDFKVGRGRCSLCDELCPDSKSDEPVCASDNATYASECAMKEAACSSGVLLEVKHSGSCN	–	–	–	–	IC50 of inhibition of 0.62 nM GDF11, (CAGA)12 luciferase reporter in HEK293 cells [6]: 0.3 nM; IC50 of inhibition of 0.62 nM GDF8, (CAGA)12 luciferase reporter in HEK293 cells [7]: 0.2 nM
